Measured values as given in patent US20250144178A1 (KANAPH THERAPEUTICS, published 2025).

Columns and labels:
[1] = molecular target: T1, human FAP (fibroblast activation protein alpha) overexpressed in HEK293 cells (HEK293-hFAP) (human, UniProt Q12884 1-760); experiment: flow cytometry on HEK293-hFAP cells, detection with anti-human IgG antibody
T1 construct: whole, on cells; also called human FAP-expressing cell line
T1 sequence (looked up): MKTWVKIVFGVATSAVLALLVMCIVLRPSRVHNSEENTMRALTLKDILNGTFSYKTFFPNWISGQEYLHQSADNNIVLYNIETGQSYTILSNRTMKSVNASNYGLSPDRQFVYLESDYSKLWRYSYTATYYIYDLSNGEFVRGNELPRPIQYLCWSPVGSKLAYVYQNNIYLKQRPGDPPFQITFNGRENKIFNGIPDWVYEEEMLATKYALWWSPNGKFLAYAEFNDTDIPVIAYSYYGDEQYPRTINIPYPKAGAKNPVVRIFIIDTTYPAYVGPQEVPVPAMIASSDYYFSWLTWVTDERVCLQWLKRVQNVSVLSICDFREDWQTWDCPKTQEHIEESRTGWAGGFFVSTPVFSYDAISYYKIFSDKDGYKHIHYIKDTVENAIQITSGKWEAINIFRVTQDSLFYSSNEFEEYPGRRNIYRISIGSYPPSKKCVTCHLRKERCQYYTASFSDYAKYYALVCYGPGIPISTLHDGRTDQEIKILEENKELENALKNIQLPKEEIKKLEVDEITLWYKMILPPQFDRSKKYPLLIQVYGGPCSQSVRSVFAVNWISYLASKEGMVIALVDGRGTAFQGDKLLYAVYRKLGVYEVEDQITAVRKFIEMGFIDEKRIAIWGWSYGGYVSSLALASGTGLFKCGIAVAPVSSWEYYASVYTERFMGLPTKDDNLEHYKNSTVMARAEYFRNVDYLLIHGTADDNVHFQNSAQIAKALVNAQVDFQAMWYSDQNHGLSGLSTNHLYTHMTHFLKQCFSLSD
Description: (§1) Specifically, the cell line was prepared by suspending in a FACS buffer solution at 1×10⁵ cells/100 μl, and treated with 1 μg each of T1.12, T1.01, T1.02 and T1.03. The cells were washed twice with a FACS buffer solution. The cells were stained with an anti-human IgG antibody (Biolegend). The negative control was stained only with an anti-human IgG antibody (Biolegend). The expression rates of the stained cells were measured using BD LSR and analyzed using a FlowJo software.

[2] = molecular target: T2, IL-12 receptor beta 1-biotin (recombinant human IL-12 receptor protein) (human, UniProt P42701 24-545, limits assumed, biotin (site not stated)); experiment: ELISA, protein coated in serial dilution, 1 nM IL-12Rβ1-biotin, streptavidin-HRP, OD at 450 nm
T2 construct: Bought reagent; also called IL-12Rβ1-Biotin
Description: (ii) The wells were washed with a wash solution, and then blocking was performed for 1 hour with 1% BSA (Bovine serum albumin, Sigma) solution.
(iii) The wells were washed with a wash solution, and then treated with 1 nM IL-12 receptor beta 1-biotin (IL-12Rβ1-Biotin; Acrobiosystems, Newark, USA) for 2 hours.
(iv) The wells were washed with a wash solution, and then treated with streptavidin-HRP for 20 minutes.

[3] = molecular target: T1, human FAP (fibroblast activation …); experiment: flow cytometry on HEK293-hFAP cells, 1 µg protein per 1x10^5 cells, anti-human IgG detection
Description: as §1

- percent of cells in the positive gate (hFAP-PE) [1]: 99.3%
- binding result [2]: no binding (tested: 10^5 pM)
- percent of cells bound [3]: ≥ 99%
B1: T1.12 (anti-hu FAP/null, hu IgG1 DANG) (antibody)
heavy: QVQLVQSGAEVKKPGASVKVSCKTSRYTFTEYTIHWVRQAPGQRLEWIGGINPNNGIPNYNQKFKGRVTITVDTSASTAYMELSSLRSEDTAVYYCARRRIAYGYDEGHAMDYWGQGTLVTVSSASTKGPSVFPLAPSSKSTSGGTAALGCLVKDYFPEPVTVSWNSGALTSGVHTFPAVLQSSGLYSLSSVVTVPSSSLGTQTYICNVNHKPSNTKVDKKVEPKSCDKTHTCPPCPAPELLGGPSVFLFPPKPKDTLMISRTPEVTCVVVAVSHEDPEVKFNWYVDGVEVHNAKTKPREEQYGSTYRVVSVLTVLHQDWLNGKEYKCKVSNKALPAPIEKTISKAKGQPREPQVYTLPPSRDELTKNQVSLWCLVKGFYPSDIAVEWESNGQPENNYKTTPPVLDSDGSFFLYSKLTVDKSRWQQGNVFSCSVMHEALHNHYTQKSLSLSPGK
light: not shown
chain: not shown
notes: One-armed anti-FAP antibody without IL-12; used as the control for IL-12 activity
